Test results: article doi:10.1101/2021.05.16.444192

Target: neurokinin 1 receptor (human) (UniProt P25103)
Sequence of UniProt P25103 (P25103 whole entry): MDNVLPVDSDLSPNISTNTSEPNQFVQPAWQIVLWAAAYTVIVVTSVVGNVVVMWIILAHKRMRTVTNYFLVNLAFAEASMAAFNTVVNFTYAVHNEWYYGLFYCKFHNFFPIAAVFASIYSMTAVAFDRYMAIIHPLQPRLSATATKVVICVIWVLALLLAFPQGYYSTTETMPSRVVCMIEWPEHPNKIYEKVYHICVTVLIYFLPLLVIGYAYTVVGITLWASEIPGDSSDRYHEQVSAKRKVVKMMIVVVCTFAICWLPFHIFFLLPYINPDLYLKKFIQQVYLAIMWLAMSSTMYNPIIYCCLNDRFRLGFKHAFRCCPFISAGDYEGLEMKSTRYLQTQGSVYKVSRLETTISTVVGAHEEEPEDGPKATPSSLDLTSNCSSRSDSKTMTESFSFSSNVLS

cAMP accumulation at wild-type NK1R, potency compared to SP: 16 fold
Substance: Substance P 6-11 (peptide)
